Data: the supplement of paper PMC11246515
± gives the standard deviation of the averaged measurements.

Test: total protein half-life in vivo (active degradation + dilution); higher = more stable protein
[1] = E. coli NCM3722 delta-clpP delta-lon delta-hslV, growth: N-lim chemostat, doubling time 6 h
[2] = E. coli NCM3722 delta-clpP, growth: N-lim chemostat, doubling time 6 h
[3] = E. coli NCM3722 delta-hslV, growth: N-lim chemostat, doubling time 6 h
[4] = E. coli NCM3722 delta-lon, growth: N-lim chemostat, doubling time 6 h
[5] = E. coli NCM3722 delta-smpB, growth: N-lim chemostat, doubling time 6 h
[6] = wild type E. coli NCM3722, growth: C-lim chemostat, doubling time 3 h
[7] = wild type E. coli NCM3722, growth: C-lim chemostat, doubling time 6 h
[8] = wild type E. coli NCM3722, growth: C-lim chemostat, doubling time 12 h
[9] = wild type E. coli NCM3722, growth: N-lim chemostat, doubling time 6 h
[10] = wild type E. coli NCM3722, growth: P-lim chemostat, doubling time 6 h
[11] = wild type E. coli NCM3722, growth: P-lim chemostat, doubling time 12 h
[12] = wild type E. coli NCM3722, growth: N-lim chemostat, doubling time 12 h

In the case of “MTIFDNYEVWFVIGSQHLYGPETLRQVTQHAEHVVNALNTEAKLPCKLVLKPLGTTPDEITAICRDANYDDRCAGLVVWLHTFSPAKMWINGLTMLNKPLLQFHTQFNAALPWDSIDMDFMNLNQTAHGGREFGFIGARMRQQHAVVTGHWQDKQAHERIGSWMRQAVSKQDTRHLKVCRFGDNMREVAVTDGDKVAAQIKFGFSVNTWAVGDLVQVVNSISDGDVNALVDEYESCYTMTPATQIHGKKRQNVLEAARIELGMKRFLEQGGFHAFTTTFEDLHGLKQLPGLAVQRLMQQGYGFAGEGDWKTAALLRIMKVMSTGLQGGTSFMEDYTYHFEKGNDLVLGSHMLEVCPSIAAEEKPILDVQHLGIGGKDDPARLIFNTQTGPAIVASLIDLGDRYRLLVNCIDTVKTPHSLPKLPVANALWKAQPDLPTASEAWILAGGAHHTVFSHALNLNDMRQFAEMHDIEITVIDNDTRLPAFKDALRWNEVYYGFRR”, the “total protein half-life in vivo” value [1] is reported as 3.94 ± 0.26 h, the “total protein half-life in vivo” value [2] is reported as 3.03 ± 0.081 h and the “total protein half-life in vivo” value [3] is reported as 3.07 h. The “total protein half-life in vivo” value [4] was 3.405 ± 0.014 h, the “total protein half-life in vivo” value [5] was 3.25 ± 0.17 h and the “total protein half-life in vivo” value [6] was 2.84 ± 0.36 h. The “total protein half-life in vivo” value [7] was 5.77 ± 0.19 h, the “total protein half-life in vivo” value [8] was 9.63 ± 1.2 h and the “total protein half-life in vivo” value [9] was 3.26 h. For the same substance, the “total protein half-life in vivo” value [10] was 5.05 ± 0.14 h and the “total protein half-life in vivo” value [11] was 11.6 ± 1.2 h.
For “MQKVVLATGNVGKVRELASLLSDFGLDIVAQTDLGVDSAEETGLTFIENAILKARHAAKVTALPAIADDSGLAVDVLGGAPGIYSARYSGEDATDQKNLQKLLETMKDVPDDQRQARFHCVLVYLRHAEDPTPLVCHGSWPGVITREPAGTGGFGYDPIFFVPSEGKTAAELTREEKSAISHRGQALKLLLDALRNG”, the “total protein half-life in vivo” value [1] was 4.93 ± 0.34 h, the “total protein half-life in vivo” value [2] was 4.228 ± 0.016 h and the “total protein half-life in vivo” value [3] was 4.12 ± 0.13 h. For the same substance, the “total protein half-life in vivo” value [4] was 4.93 ± 0.076 h, the “total protein half-life in vivo” value [5] was 3.951 ± 0.0058 h and the “total protein half-life in vivo” value [6] was 3.16 ± 0.17 h. The “total protein half-life in vivo” value [7] was 5.1 ± 0.19 h, the “total protein half-life in vivo” value [8] was 8.51 ± 0.84 h and the “total protein half-life in vivo” value [9] was 4 ± 0.17 h. For the same substance, the “total protein half-life in vivo” value [12] was 6.87 ± 0.21 h, the “total protein half-life in vivo” value [10] was 5.14 ± 0.35 h and the “total protein half-life in vivo” value [11] was 10.7 ± 0.027 h.
In the case of P0AES2, the “total protein half-life in vivo” value [1] is reported as 4.25 ± 0.51 h, the “total protein half-life in vivo” value [2] is reported as 3.729 ± 0.03 h and the “total protein half-life in vivo” value [3] is reported as 3.64 ± 0.5 h. The “total protein half-life in vivo” value [4] was 3.41 ± 0.14 h, the “total protein half-life in vivo” value [5] was 3.21 ± 0.19 h and the “total protein half-life in vivo” value [6] was 3.03 ± 0.049 h. The “total protein half-life in vivo” value [7] was 5.26 ± 0.72 h, the “total protein half-life in vivo” value [8] was 8.83 ± 0.4 h and the “total protein half-life in vivo” value [9] was 3.14 ± 0.086 h. The “total protein half-life in vivo” value [12] was 4.57 ± 0.082 h, the “total protein half-life in vivo” value [10] was 5.38 ± 0.73 h and the “total protein half-life in vivo” value [11] was 8.99 ± 0.022 h.
In the case of “MKNLIAELLFKLAQKEEESKELCAQVEALEIIVTAMLRNMAQNDQQRLIDQVEGALYEVKPDASIPDDDTELLRDYVKKLLKHPRQ [P0AAN9]”, the “total protein half-life in vivo” value [2] is reported as 3.74 ± 0.97 h, the “total protein half-life in vivo” value [3] is reported as 4.38 ± 0.94 h and the “total protein half-life in vivo” value [4] is reported as 6.09 ± 1.4 h. For the same substance, the “total protein half-life in vivo” value [5] was 4.195 ± 0.0044 h, the “total protein half-life in vivo” value [6] was 3.54 ± 0.59 h and the “total protein half-life in vivo” value [7] was 4.96 ± 0.47 h. For the same substance, the “total protein half-life in vivo” value [8] was 7.25 ± 1.9 h, the “total protein half-life in vivo” value [9] was 3.43 ± 0.67 h and the “total protein half-life in vivo” value [12] was 8.18 ± 5.6 h. For the same substance, the “total protein half-life in vivo” value [10] was 4.02 ± 1.8 h and the “total protein half-life in vivo” value [11] was 10.1 ± 0.93 h.
